Numbered stars: 1 amine (or outer) side, 2 acyl side, 3 side chain; on linkers, the order of the positions; unused ones are H or OH. Bridge positions count the residues as written; N and C are the ends. Side chains are listed from the residue outwards. Ends that are not written are not given here. * marks the point of attachment. C20 diacid = O=C(O)CCCCCCCCCCCCCCCCCCC(=O)*; γGlu = O=C(O)[C@H](CCC(=O)[*:2])N[*:1]
T1: rat amylin receptor (rat calcitonin receptor + rat RAMP 3) (rat, UniProt P32214 25-516; Q9JJ73 23-147)
T1 construct: whole, on cells; Membranes prepared from transiently transfected BHK tk'ts 13 cells; also called rAmylin-R; rat amylin 3(a) receptor
T1 sequence (looked up) 1: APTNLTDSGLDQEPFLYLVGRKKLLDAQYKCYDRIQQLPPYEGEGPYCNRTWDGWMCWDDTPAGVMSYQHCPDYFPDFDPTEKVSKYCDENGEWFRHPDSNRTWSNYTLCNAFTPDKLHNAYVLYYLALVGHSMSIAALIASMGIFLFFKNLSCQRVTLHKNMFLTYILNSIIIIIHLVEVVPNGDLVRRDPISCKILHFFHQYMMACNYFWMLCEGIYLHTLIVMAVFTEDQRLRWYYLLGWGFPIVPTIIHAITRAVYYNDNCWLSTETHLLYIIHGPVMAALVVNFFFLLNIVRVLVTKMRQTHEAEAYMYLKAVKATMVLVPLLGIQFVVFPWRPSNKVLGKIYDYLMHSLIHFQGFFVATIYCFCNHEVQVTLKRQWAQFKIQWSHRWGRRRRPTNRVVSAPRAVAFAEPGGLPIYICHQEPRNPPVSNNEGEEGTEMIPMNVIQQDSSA
T1 sequence (looked up) 2: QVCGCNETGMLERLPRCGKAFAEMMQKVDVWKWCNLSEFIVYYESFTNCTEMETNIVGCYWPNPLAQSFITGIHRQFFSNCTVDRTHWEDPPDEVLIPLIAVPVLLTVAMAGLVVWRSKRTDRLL

T2: rat calcitonin receptor (rat, UniProt P32214 25-516)
T2 construct: whole, on cells; Membranes prepared from transiently transfected BHK tk'ts 13 cells; also called rCTR; rat calcitonin (a) receptor
T2 sequence (looked up): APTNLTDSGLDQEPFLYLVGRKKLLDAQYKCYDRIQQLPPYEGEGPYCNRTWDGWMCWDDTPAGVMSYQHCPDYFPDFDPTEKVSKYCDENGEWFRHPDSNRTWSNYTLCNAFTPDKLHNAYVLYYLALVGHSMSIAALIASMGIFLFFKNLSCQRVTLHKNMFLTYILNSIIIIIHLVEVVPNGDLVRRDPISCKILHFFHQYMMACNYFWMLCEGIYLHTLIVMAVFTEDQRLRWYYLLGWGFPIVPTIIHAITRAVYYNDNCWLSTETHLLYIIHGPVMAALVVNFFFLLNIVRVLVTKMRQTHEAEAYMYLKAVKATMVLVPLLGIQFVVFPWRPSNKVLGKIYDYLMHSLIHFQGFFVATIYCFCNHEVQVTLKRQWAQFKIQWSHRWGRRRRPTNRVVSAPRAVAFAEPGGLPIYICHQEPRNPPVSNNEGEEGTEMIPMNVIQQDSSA

T3: human calcitonin receptor (human, UniProt P30988 25-474)
T3 construct: whole, on cells; Membranes from stably transfected BHK cells; also called hCTR; hCT
T3 sequence (looked up): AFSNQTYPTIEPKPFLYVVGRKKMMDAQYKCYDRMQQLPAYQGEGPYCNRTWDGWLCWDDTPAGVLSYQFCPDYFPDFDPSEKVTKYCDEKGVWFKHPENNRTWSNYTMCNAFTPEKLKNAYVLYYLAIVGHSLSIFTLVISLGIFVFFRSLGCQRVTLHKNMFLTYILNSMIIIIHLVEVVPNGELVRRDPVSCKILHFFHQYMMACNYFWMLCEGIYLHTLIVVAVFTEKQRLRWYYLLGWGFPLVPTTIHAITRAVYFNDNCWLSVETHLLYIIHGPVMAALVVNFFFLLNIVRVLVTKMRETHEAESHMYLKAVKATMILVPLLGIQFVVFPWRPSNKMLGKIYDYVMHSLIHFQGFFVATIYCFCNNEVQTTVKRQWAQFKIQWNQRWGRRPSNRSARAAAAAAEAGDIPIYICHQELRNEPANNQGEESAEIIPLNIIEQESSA


Tests used:
[1] = molecular target: T1, rat amylin receptor (rat calcitonin …); assay: SPA competition vs 125I-rat amylin, membranes (Assay VI)
rat calcitonin receptor [2] = molecular target: T2, rat calcitonin receptor; assay: SPA competition vs 125I-calcitonin, membranes (Assay VIII)
rat calcitonin receptor [3] = molecular target: T2, rat calcitonin receptor; assay: ratio of IC50 on rat calcitonin receptor to IC50 on rat amylin receptor
[4] = molecular target: T3, human calcitonin receptor; assay: ratio of IC50 on human calcitonin receptor to IC50 on human amylin receptor
Procedure, shortened: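 Competition binding by SPA uses membrane preparations (35 ng/μL final) in pH 7.4 Hepes buffer with 1 mM CaCl2 and 5 mM MgCl₂. Incubation lasts 120 min at 25° C, and IC₅₀ comes from one-site fitting.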

| Binder | IC50 [1] | IC50 (rat calcitonin receptor [2]) | Ratio rCT/rAmylin binding (rat calcitonin receptor [3]) | Ratio hCT/hAmylin binding [4] |
| --- | --- | --- | --- | --- |
| K([γGlu-γGlu-C20 diacid])CNTATCATQRLAEFLRHSSPNFGAIPSSTNVGPRTY-NH2 (disulfide 2-7; N-terminus assumed; SMILES CC[C@H](C)[C@H](NC(=O)[C@H](C)NC(=O)CNC(=O)[C@H](Cc1ccccc1)NC(=O)[C@H](CC(N)=O)NC(=O)[C@@H]1CCCN1C(=O)[C@H](CO)NC(=O)[C@H](CO)NC(=O)[C@H](Cc1c[nH]cn1)NC(=O)[C@H](CCCNC(=N)N)NC(=O)[C@H](CC(C)C)NC(=O)[C@H](Cc1ccccc1)NC(=O)[C@H](CCC(=O)O)NC(=O)[C@H](C)NC(=O)[C@H](CC(C)C)NC(=O)[C@H](CCCNC(=N)N)NC(=O)[C@H](CCC(N)=O)NC(=O)[C@@H](NC(=O)[C@H](C)NC(=O)[C@@H]1CSSC[C@H](NC(=O)[C@@H](N)CCCCNC(=O)CC[C@H](NC(=O)CC[C@H](NC(=O)CCCCCCCCCCCCCCCCCCC(=O)O)C(=O)O)C(=O)O)C(=O)N[C@@H](CC(N)=O)C(=O)N[C@@H]([C@@H](C)O)C(=O)N[C@@H](C)C(=O)N[C@@H]([C@@H](C)O)C(=O)N1)[C@@H](C)O)C(=O)N1CCC[C@H]1C(=O)N[C@@H](CO)C(=O)N[C@@H](CO)C(=O)N[C@H](C(=O)N[C@@H](CC(N)=O)C(=O)N[C@H](C(=O)NCC(=O)N1CCC[C@H]1C(=O)N[C@@H](CCCNC(=N)N)C(=O)N[C@H](C(=O)N[C@@H](Cc1ccc(O)cc1)C(N)=O)[C@@H](C)O)C(C)C)[C@@H](C)O, also called compound 110) | 0.000339 µM | 0.0383 µM | 113 | 53.6 |
| K([γGlu-γGlu-C20 diacid])CNTATCATQRLAEFLRHSSPNFGAIPSSTNVGPNTF-NH2 (disulfide 2-7; N-terminus assumed; SMILES CC[C@H](C)[C@H](NC(=O)[C@H](C)NC(=O)CNC(=O)[C@H](Cc1ccccc1)NC(=O)[C@H](CC(N)=O)NC(=O)[C@@H]1CCCN1C(=O)[C@H](CO)NC(=O)[C@H](CO)NC(=O)[C@H](Cc1c[nH]cn1)NC(=O)[C@H](CCCNC(=N)N)NC(=O)[C@H](CC(C)C)NC(=O)[C@H](Cc1ccccc1)NC(=O)[C@H](CCC(=O)O)NC(=O)[C@H](C)NC(=O)[C@H](CC(C)C)NC(=O)[C@H](CCCNC(=N)N)NC(=O)[C@H](CCC(N)=O)NC(=O)[C@@H](NC(=O)[C@H](C)NC(=O)[C@@H]1CSSC[C@H](NC(=O)[C@@H](N)CCCCNC(=O)CC[C@H](NC(=O)CC[C@H](NC(=O)CCCCCCCCCCCCCCCCCCC(=O)O)C(=O)O)C(=O)O)C(=O)N[C@@H](CC(N)=O)C(=O)N[C@@H]([C@@H](C)O)C(=O)N[C@@H](C)C(=O)N[C@@H]([C@@H](C)O)C(=O)N1)[C@@H](C)O)C(=O)N1CCC[C@H]1C(=O)N[C@@H](CO)C(=O)N[C@@H](CO)C(=O)N[C@H](C(=O)N[C@@H](CC(N)=O)C(=O)N[C@H](C(=O)NCC(=O)N1CCC[C@H]1C(=O)N[C@@H](CC(N)=O)C(=O)N[C@H](C(=O)N[C@@H](Cc1ccccc1)C(N)=O)[C@@H](C)O)C(C)C)[C@@H](C)O) | 0.000205 µM | 0.0234 µM | 114 | 18 |
| K([γGlu-γGlu-C20 diacid])CNTATCATQRLASFLRHSSPNFGAIPSSTNVGPETY-NH2 (disulfide 2-7; N-terminus assumed; SMILES CC[C@H](C)[C@H](NC(=O)[C@H](C)NC(=O)CNC(=O)[C@H](Cc1ccccc1)NC(=O)[C@H](CC(N)=O)NC(=O)[C@@H]1CCCN1C(=O)[C@H](CO)NC(=O)[C@H](CO)NC(=O)[C@H](Cc1c[nH]cn1)NC(=O)[C@H](CCCNC(=N)N)NC(=O)[C@H](CC(C)C)NC(=O)[C@H](Cc1ccccc1)NC(=O)[C@H](CO)NC(=O)[C@H](C)NC(=O)[C@H](CC(C)C)NC(=O)[C@H](CCCNC(=N)N)NC(=O)[C@H](CCC(N)=O)NC(=O)[C@@H](NC(=O)[C@H](C)NC(=O)[C@@H]1CSSC[C@H](NC(=O)[C@@H](N)CCCCNC(=O)CC[C@H](NC(=O)CC[C@H](NC(=O)CCCCCCCCCCCCCCCCCCC(=O)O)C(=O)O)C(=O)O)C(=O)N[C@@H](CC(N)=O)C(=O)N[C@@H]([C@@H](C)O)C(=O)N[C@@H](C)C(=O)N[C@@H]([C@@H](C)O)C(=O)N1)[C@@H](C)O)C(=O)N1CCC[C@H]1C(=O)N[C@@H](CO)C(=O)N[C@@H](CO)C(=O)N[C@H](C(=O)N[C@@H](CC(N)=O)C(=O)N[C@H](C(=O)NCC(=O)N1CCC[C@H]1C(=O)N[C@@H](CCC(=O)O)C(=O)N[C@H](C(=O)N[C@@H](Cc1ccc(O)cc1)C(N)=O)[C@@H](C)O)C(C)C)[C@@H](C)O, also called compound 120) | 0.000161 µM | 0.14 µM | 868 | 45.3 |
| K([γGlu-γGlu-C20 diacid])CNTATCATQRLAEFLRHSSPNFGAIPSSTNVGPHTY-NH2 (disulfide 2-7 (inferred)) | 0.000288 µM | 0.021 µM | 73 | 27.3 |

Continued by falling IC50 [1], values first:

| IC50 [1] | IC50 (rat calcitonin receptor [2]) | Ratio rCT/rAmylin binding (rat calcitonin receptor [3]) | Ratio hCT/hAmylin binding [4] | Binder |
| --- | --- | --- | --- | --- |
| 0.0112 µM | 0.311 µM | 27.7 | 65.3 | {C20 diacid-γGlu}-GRCNTATCATQRLAHFLRHSSPNFGAIPSSTNVGHNTY-NH2 (disulfide 3-8; SMILES CC[C@H](C)[C@H](NC(=O)[C@H](C)NC(=O)CNC(=O)[C@H](Cc1ccccc1)NC(=O)[C@H](CC(N)=O)NC(=O)[C@@H]1CCCN1C(=O)[C@H](CO)NC(=O)[C@H](CO)NC(=O)[C@H](Cc1c[nH]cn1)NC(=O)[C@H](CCCNC(=N)N)NC(=O)[C@H](CC(C)C)NC(=O)[C@H](Cc1ccccc1)NC(=O)[C@H](Cc1c[nH]cn1)NC(=O)[C@H](C)NC(=O)[C@H](CC(C)C)NC(=O)[C@H](CCCNC(=N)N)NC(=O)[C@H](CCC(N)=O)NC(=O)[C@@H](NC(=O)[C@H](C)NC(=O)[C@@H]1CSSC[C@H](NC(=O)[C@H](CCCNC(=N)N)NC(=O)CNC(=O)CC[C@H](NC(=O)CCCCCCCCCCCCCCCCCCC(=O)O)C(=O)O)C(=O)N[C@@H](CC(N)=O)C(=O)N[C@@H]([C@@H](C)O)C(=O)N[C@@H](C)C(=O)N[C@@H]([C@@H](C)O)C(=O)N1)[C@@H](C)O)C(=O)N1CCC[C@H]1C(=O)N[C@@H](CO)C(=O)N[C@@H](CO)C(=O)N[C@H](C(=O)N[C@@H](CC(N)=O)C(=O)N[C@H](C(=O)NCC(=O)N[C@@H](Cc1c[nH]cn1)C(=O)N[C@@H](CC(N)=O)C(=O)N[C@H](C(=O)N[C@@H](Cc1ccc(O)cc1)C(N)=O)[C@@H](C)O)C(C)C)[C@@H](C)O, also called compound 100) |
| 0.000449 µM | 0.0335 µM | 74.7 | 22.6 | K([γGlu-γGlu-C20 diacid])CNTATCATQRLAEFLRHSSPNFGAILSSTPVGPETY-NH2 (disulfide 2-7) |
